From patent publication US20190300590A1 (PROTAGONIST THERAPEUTICS, published 2019)
Where two headings read alike, the source gives them in different places. *1 amine or outer side, *2 acyl side, *3 side chain or, on linkers, in order; H or OH if unused. Bridges are numbered along the chain shown (N, C = ends). [ ]: non-standard residue; d: D form. Phe(4-OMe) = 4-methoxy-L-phenylalanine (O-methyl-L-tyrosine), COc1ccc(C[C@H](N[*:1])C(=O)[*:2])cc1; 2Nal = N[C@@H](Cc1ccc2ccccc2c1)C(=O)O; AEF = NCCOc1ccc(C[C@H](N)C(=O)O)cc1; NMeQ = CN[C@@H](CCC(N)=O)C(=O)O; αMeK = C[C@](N)(CCCCN)C(=O)O; Thp = NC1(C(=O)O)CCOCC1; Abu = CC[C@H](N)C(=O)O; Aib = CC(C)(N)C(=O)O; AEA = NCCOCC(=O)O

Assays:
Rat IL-23R_huFC [1] = target: T1, Rat IL-23R_huFC (rat; human, UniProt F1LX96 39-369); experiment: rat IL-23R competitive ELISA
T1 sequence: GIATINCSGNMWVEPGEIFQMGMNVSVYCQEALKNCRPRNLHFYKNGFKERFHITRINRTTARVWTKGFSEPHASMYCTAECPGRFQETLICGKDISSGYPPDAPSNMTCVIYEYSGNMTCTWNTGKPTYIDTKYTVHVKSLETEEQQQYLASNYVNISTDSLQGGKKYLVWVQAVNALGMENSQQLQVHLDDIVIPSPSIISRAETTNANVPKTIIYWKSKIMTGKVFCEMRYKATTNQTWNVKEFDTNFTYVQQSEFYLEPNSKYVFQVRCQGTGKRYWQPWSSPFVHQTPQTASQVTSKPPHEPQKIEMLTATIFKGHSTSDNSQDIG

IL-23R on DB cells = target: T2, IL-23R on DB cells (human, UniProt Q5VWK5 24-629); experiment: cell-based or functional assay
T2 sequence (looked up): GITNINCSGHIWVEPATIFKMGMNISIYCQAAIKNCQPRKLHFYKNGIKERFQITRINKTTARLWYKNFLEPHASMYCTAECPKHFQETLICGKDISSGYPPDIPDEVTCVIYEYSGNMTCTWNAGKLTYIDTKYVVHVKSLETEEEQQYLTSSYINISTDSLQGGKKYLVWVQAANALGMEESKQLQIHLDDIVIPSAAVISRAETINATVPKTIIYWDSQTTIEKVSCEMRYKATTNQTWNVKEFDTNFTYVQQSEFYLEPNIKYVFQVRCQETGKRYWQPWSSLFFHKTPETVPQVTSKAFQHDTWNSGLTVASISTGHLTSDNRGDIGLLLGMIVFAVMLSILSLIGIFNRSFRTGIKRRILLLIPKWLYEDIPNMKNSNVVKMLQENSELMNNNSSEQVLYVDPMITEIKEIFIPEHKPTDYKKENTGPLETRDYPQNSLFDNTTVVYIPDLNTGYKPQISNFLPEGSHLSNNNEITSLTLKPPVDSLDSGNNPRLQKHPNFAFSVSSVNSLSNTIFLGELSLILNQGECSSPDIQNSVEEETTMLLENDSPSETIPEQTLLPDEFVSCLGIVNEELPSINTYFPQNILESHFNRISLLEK

Rat IL-23R_huFC [2] = target: Rat IL-23R_huFC (rat); experiment: rat ELISA vs IL-23
Rat IL-23R_huFC [3] = target: Rat IL-23R_huFC (rat); experiment: rat ELISA vs IL-23; remark: listed apart in the source
IL23R_huFC [4] = target: T3, IL23R_huFC (human, UniProt Q5VWK5 24-353); experiment: human ELISA vs IL-23
T3 sequence (looked up): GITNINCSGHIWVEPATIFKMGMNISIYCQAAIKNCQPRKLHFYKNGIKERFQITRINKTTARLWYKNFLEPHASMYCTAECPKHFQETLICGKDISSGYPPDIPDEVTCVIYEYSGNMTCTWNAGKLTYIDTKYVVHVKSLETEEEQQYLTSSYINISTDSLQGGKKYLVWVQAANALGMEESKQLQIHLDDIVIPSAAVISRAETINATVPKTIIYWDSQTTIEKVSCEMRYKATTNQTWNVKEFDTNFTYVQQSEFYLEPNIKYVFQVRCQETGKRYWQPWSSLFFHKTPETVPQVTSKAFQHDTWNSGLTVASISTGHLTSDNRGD

[5] = target: T4, IL-23R on human cells (IL-23R-expressing DB cells; human NK cells) (human, UniProt Q5VWK5 24-629); experiment: cell-based or functional assay
T4 sequence (looked up): T2 sequence (looked up)

[6] = target: T4, IL-23R on human cells …; experiment: cell-based or functional assay; remark: listed apart in the source
Rat IL-23R_huFC [7] = target: Rat IL-23R_huFC (rat); experiment: rat ELISA vs IL-23; remark: listed apart in the source
IL23R_huFC [8] = target: T3, IL23R_huFC; experiment: human ELISA vs IL-23; remark: listed apart in the source
IL23R_huFC [9] = target: T3, IL23R_huFC; experiment: human ELISA vs IL-23; remark: listed apart in the source

B1: Ac-C-CYWRVFG-[AEA]-[(D)Lys]-NH2 (peptide)
peptide: CXTWQCYWRVFGXK
modifications: Ac-; [AEA]; [(D)Lys]; -NH2
Q: With B1 as the binder, how does the IC50 (Rat IL-23R_huFC [1]) read?
A: 100 nM

B2: Ac-C-[N-MeQln]-TWQCYWRVFG-[AEA]-[(D)Lys]-NH2 (peptide)
peptide: Ac-C[NMeQ]TWQCYWRVFG[AEA][dK]-NH2
modifications: disulfide 1-6 (inferred)
Q: How did the IC50 (Rat IL-23R_huFC [1]) turn out when B2 was run?
A: 85 nM

B3: Ac-CNTWQCYWRVFG-[AEA]-[(D)Lys]-NH2 (peptide)
peptide: Ac-CNTWQCYWRVFG[AEA][dK]-NH2
modifications: disulfide 1-6 (inferred)
Q: With B3 as the binder, how does the IC50 (Rat IL-23R_huFC [1]) read?
A: 79 nM

B4: [Ac-[Pen]-NTWQ-[Pen]-[Phe(4-CONH2)]-[2-Nal]-[Aib]-KNN-NH2]2DIG (peptide)
peptide: XNTWQXFXXKNN
modifications: Ac; Pen-Pen disulfide; Phe(4-CONH2); 2-Nal; Aib; NH2; DIG linker joins the two subunits
Q: How did the “pStat3 HTRF IC50” value (IL-23R on DB cells) turn out when B4 was run?
A: < 10 nM

B5: [Ac-[Pen]-NTWQ-[Pen]-[Phe(4-CONH2)]-[2-Nal]-[Acvc]-KNN-NH2]2DIG (peptide)
peptide: XNTWQXFXXKNN
modifications: Ac; Pen-Pen disulfide; Phe(4-CONH2); 2-Nal; Acvc; NH2; DIG linker joins the two subunits
Q: How did the “pStat3 HTRF IC50” value (IL-23R on DB cells) turn out when B5 was run?
A: < 10 nM

B6: [Ac-[Pen]-NTWQ-[Pen]-[Phe(4-CONH2)]-[2-Nal]-[4-amino-4-carboxy-tetrahydropyran]-KNN-NH2]2DIG (peptide)
peptide: XNTWQXFXXKNN
modifications: Ac; Pen-Pen disulfide; Phe(4-CONH2); 2-Nal; 4-amino-4-carboxy-tetrahydropyran; NH2; DIG linker joins the two subunits
Q: How did the “pStat3 HTRF IC50” value (IL-23R on DB cells) turn out when B6 was run?
A: < 10 nM

B7: [Ac-[Pen]-NTWQ-[Pen]-[Phe(4-CONH2)]-[2-Nal]-[Achc]-KNN-NH2]2DIG (peptide)
peptide: XNTWQXFXXKNN
modifications: Ac; Pen-Pen disulfide; Phe(4-CONH2); 2-Nal; Achc; NH2; DIG linker joins the two subunits
Q: For B7, which “pStat3 HTRF IC50” value (IL-23R on DB cells) is on record?
A: < 10 nM

B8: Ac-Cyclo-[[Abu]-QTWQC]-[2-Nal]-[2-Nal]-[α-MeOrn]-[Lys(Ac)]-NG-NH2 (peptide)
peptide: XQTWQCXXXKNG
modifications: as bracketed in name; thioether cyclo
Q: B8 was tested. Which IC50 (Rat IL-23R_huFC [2]) did it give?
A: 100 to 1000 nM

B9: [Ac-[Pen]-NTWQ-[Pen]-[Phe(4-OMe)]-[2-Nal]-[Acvc]-KNN-NH2]2DIG (peptide)
peptide: XNTWQXFXXKNN
modifications: Ac; Pen-Pen disulfide; Phe(4-OMe); 2-Nal; Acvc; NH2; DIG linker joins the two subunits
Q: For B9, which “pStat3 HTRF IC50” value (IL-23R on DB cells) is on record?
A: < 10 nM

B10: [Ac-[Pen]-NTWQ-[Pen]-[Phe(4-OMe)]-[2-Nal]-[α-MeLeu]-KNN-NH2]2DIG (peptide)
peptide: XNTWQXFXLKNN
modifications: Ac; Pen-Pen disulfide; Phe(4-OMe); 2-Nal; α-MeLeu; NH2; DIG linker joins the two subunits
Q: How did the “pStat3 HTRF IC50” value (IL-23R on DB cells) turn out when B10 was run?
A: < 10 nM

B11: Ac-Cyclo-[[Abu]-QTWQC]-[Phe[4-(2-aminoethoxy)]]-[2-Nal]-[4-amino-4-carboxy-tetrahydropyran]-ENN-NH2 (peptide)
peptide: Ac-[Abu]QTWQC[AEF][2Nal][Thp]ENN-NH2
modifications: thioether 1-6
Q: What does the source list for B11?
A: IC50 (Rat IL-23R_huFC [3]): < 10 nM; IC50 (IL23R_huFC [4]): < 10 nM; pStat3 HTRF IC50 [5]: < 10 nM; NK cell assay IC50 (IFNγ) [6]: < 25 nM

B12: Ac-Cyclo-[[Abu]-QTWQC]-[Phe[4-(2-aminoethoxy)]]-[2-Nal]-[Aib]-QNG-NH2 (peptide)
peptide: Ac-[Abu]QTWQC[AEF][2Nal][Aib]QNG-NH2
modifications: thioether 1-6
Q: What does the source list for B12?
A: IC50 (IL23R_huFC [4]): < 10 nM; pStat3 HTRF IC50 [5]: < 10 nM; NK cell assay IC50 (IFNγ) [6]: < 25 nM; IC50 (Rat IL-23R_huFC [7]): 10 to 25 nM

B13: Ac-Cyclo-[[Abu]-QTWQC]-[Phe[4-(2-aminoethoxy)]]-[2-Nal]-[Aib]-[Lys(Ac)]-NA-NH2 (peptide)
peptide: Ac-[Abu]QTWQC[AEF][2Nal][Aib]K(Ac)NA-NH2
modifications: thioether 1-6
Q: How did the IC50 (IL23R_huFC [4]) turn out when B13 was run?
A: < 10 nM

Q: What about the “pStat3 HTRF IC50” value [5] of the same binder?
A: < 10 nM

Q: And the “NK cell assay IC50 (IFNγ)” value [6]?
A: < 25 nM

Q: What about the IC50 (Rat IL-23R_huFC [7]) of the same binder?
A: 10 to 25 nM

B14: [Ac-[Pen]-NTWQ-[Pen]-[Phe(4-OMe)]-[2-Nal]-[Achc]-KNN-NH2]2DIG (peptide)
peptide: XNTWQXFXXKNN
modifications: Ac; Pen-Pen disulfide; Phe(4-OMe); 2-Nal; Achc; NH2; DIG linker joins the two subunits
Q: Which “pStat3 HTRF IC50” value (IL-23R on DB cells) does the source give for B14 here?
A: < 10 nM

B15: [Ac-[Pen]-NTWQ-[Pen]-[Phe(4-OMe)]-[2-Nal]-[4-amino-4-carboxy-tetrahydropyran]-KNN-NH2]2DIG (peptide)
peptide: XNTWQXFXXKNN
modifications: Ac; Pen-Pen disulfide; Phe(4-OMe); 2-Nal; 4-amino-4-carboxy-tetrahydropyran; NH2; DIG linker joins the two subunits
Q: How did the “pStat3 HTRF IC50” value (IL-23R on DB cells) turn out when B15 was run?
A: < 10 nM

B16: Ac-Cyclo-[[Abu]-QTWQC]-[Phe(4-OMe)]-[2-Nal]-[(D)Asn]-[Lys(Ac)]-NG-NH2 (peptide)
peptide: Ac-[Abu]QTWQC[Phe(4-OMe)][2Nal][dN]K(Ac)NG-NH2
modifications: thioether 1-6
Q: Which results are given for B16?
A: IC50 (IL23R_huFC [8]): 25 to 100 nM; IC50 (Rat IL-23R_huFC [2]): 100 to 1000 nM

B17: Ac-Cyclo-[[Abu]-QTWQC]-[Phe(4-OMe)]-[2-Nal]-[α-MeLys]-ENG-NH2 (peptide)
peptide: Ac-[Abu]QTWQC[Phe(4-OMe)][2Nal][αMeK]ENG-NH2
modifications: thioether 1-6
Q: B17 was tested. Which “pStat3 HTRF IC50” value [5] did it give?
A: < 10 nM

Q: What about the “NK cell assay IC50 (IFNγ)” value [6] of the same binder?
A: < 25 nM

Q: And the IC50 (Rat IL-23R_huFC [7])?
A: 10 to 25 nM

Q: What about the IC50 (IL23R_huFC [9]) of the same binder?
A: 10 to 25 nM
